From US20180155451A1 (published 2018)

B1: GpH7-A5/GpH7-B3 variant Q295_05P/GpL16-k0 (He Ab) (antibody, human IgG1, kappa)
heavy 1: not shown
heavy 2: not shown
light: DIVMTQSPLSLPVTPGEPASISCQASESLVHSNRNTYLHWYLQKPGQSPQLLIYKVSNRFSGVPDRFSGSGSGTDFTLKISRVEAEDVGVYYCSQNTHVPPTFGQGTKVEIERTVAAPSVFIFPPSDEQLKSGTASVVCLLNNFYPREAKVQWKVDNALQSGNSQESVTEQDSKDSTYSLSSTLTLSKADYEKHKVYACEVTHQGLSSPVTKSFNRGEC
notes: He Ab: alteration only in the GpH7-B3 chain
B2: GpH7-A5/GpH7-B3 variant S337_02A/GpL16-k0 (He Ab) (antibody, human IgG1, kappa)
heavy 1: not shown
heavy 2: not shown
light: B1 light
notes: as for B1
B3: GpH7-A5/GpH7-B3 variant S267_02A/GpL16-k0 (He Ab) (antibody, human IgG1, kappa)
heavy 1: not shown
heavy 2: not shown
light: B1 light
notes: as for B1
B4: GpH7-A5/GpH7-B3 variant P271_11K/GpL16-k0 (He Ab) (antibody, human IgG1, kappa)
heavy 1: not shown
heavy 2: not shown
light: B1 light
notes: as for B1
B5: GpH7-B3 variant S298_02A/GpL16-k0 (antibody, human IgG1, kappa)
heavy: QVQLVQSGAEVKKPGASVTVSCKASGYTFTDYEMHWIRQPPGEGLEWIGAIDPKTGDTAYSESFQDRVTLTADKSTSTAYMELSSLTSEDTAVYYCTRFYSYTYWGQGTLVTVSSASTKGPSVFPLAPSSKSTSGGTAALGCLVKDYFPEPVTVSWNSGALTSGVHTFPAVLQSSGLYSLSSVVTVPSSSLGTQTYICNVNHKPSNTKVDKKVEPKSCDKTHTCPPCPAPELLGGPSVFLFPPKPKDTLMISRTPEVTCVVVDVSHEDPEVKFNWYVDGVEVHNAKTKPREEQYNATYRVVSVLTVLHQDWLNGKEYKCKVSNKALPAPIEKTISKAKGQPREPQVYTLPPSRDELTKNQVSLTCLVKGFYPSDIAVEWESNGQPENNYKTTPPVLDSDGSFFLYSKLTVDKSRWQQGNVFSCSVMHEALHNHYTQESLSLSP
light: B1 light
notes: mutation in both H chains; also called Ho Ab S298_02A; S298A
B6: GpH7-B3 variant S267_01G/GpL16-k0 (antibody, human IgG1, kappa)
heavy: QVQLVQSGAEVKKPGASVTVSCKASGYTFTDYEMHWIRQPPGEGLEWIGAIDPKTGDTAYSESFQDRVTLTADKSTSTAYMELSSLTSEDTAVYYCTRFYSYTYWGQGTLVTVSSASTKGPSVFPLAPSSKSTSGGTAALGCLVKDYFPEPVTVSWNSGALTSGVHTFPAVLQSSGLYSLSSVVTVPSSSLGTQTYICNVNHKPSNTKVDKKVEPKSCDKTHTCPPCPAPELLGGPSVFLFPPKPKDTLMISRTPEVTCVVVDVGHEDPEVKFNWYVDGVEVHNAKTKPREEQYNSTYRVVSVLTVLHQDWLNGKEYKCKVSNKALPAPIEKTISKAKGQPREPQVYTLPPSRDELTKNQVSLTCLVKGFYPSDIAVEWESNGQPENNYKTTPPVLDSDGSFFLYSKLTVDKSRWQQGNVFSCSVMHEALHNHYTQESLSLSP
light: B1 light
notes: mutation in both H chains; also called Ho Ab S267_01G; S267G
B7: GpH7-A5/GpH7-B3 variant S239_01G/GpL16-k0 (He Ab) (antibody, human IgG1, kappa)
heavy 1: not shown
heavy 2: not shown
light: B1 light
notes: as for B1
B8: GpH7-A5/GpH7-B3 variant P271_04F/GpL16-k0 (He Ab) (antibody, human IgG1, kappa)
heavy 1: not shown
heavy 2: not shown
light: B1 light
notes: as for B1
B9: GpH7-A5/GpH7-B3 variant P271_07I/GpL16-k0 (He Ab) (antibody, human IgG1, kappa)
heavy 1: not shown
heavy 2: not shown
light: B1 light
notes: as for B1
B10: GpH7-A5/GpH7-B3 variant S337_03V/GpL16-k0 (He Ab) (antibody, human IgG1, kappa)
heavy 1: not shown
heavy 2: not shown
light: B1 light
notes: as for B1
B11: GpH7-A5/GpH7-B3 variant S337_01G/GpL16-k0 (He Ab) (antibody, human IgG1, kappa)
heavy 1: not shown
heavy 2: not shown
light: B1 light
notes: as for B1
B12: GpH7-A5/GpH7-B3 variant Q295_02A/GpL16-k0 (He Ab) (antibody, human IgG1, kappa)
heavy 1: not shown
heavy 2: not shown
light: B1 light
notes: as for B1
B13: GpH7-A5/GpH7-B3 variant S298_18N/GpL16-k0 (He Ab) (antibody, human IgG1, kappa)
heavy 1: not shown
heavy 2: not shown
light: B1 light
notes: as for B1
B14: GpH7-A5/GpH7-B3 variant S298_19Q/GpL16-k0 (He Ab) (antibody, human IgG1, kappa)
heavy 1: not shown
heavy 2: not shown
light: B1 light
notes: as for B1
B15: GpH7-B3 variant S298_03V/GpL16-k0 (antibody, human IgG1, kappa)
heavy: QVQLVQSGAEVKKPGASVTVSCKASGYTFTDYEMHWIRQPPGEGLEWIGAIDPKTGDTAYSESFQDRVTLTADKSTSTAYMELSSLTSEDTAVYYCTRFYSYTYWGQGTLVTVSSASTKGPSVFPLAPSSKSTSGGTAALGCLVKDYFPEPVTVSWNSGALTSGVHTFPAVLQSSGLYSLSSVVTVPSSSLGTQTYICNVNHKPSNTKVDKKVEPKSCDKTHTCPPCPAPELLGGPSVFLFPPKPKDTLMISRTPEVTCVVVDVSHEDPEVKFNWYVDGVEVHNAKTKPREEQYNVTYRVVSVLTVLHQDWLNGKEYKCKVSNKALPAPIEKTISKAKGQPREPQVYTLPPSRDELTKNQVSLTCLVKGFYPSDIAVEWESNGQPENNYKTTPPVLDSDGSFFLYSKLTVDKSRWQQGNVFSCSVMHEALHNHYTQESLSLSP
light: B1 light
notes: mutation in both H chains; also called Ho Ab S298_03V; S298V
B16: GpH7-A5/GpH7-B3 variant S298_15Y/GpL16-k0 (He Ab) (antibody, human IgG1, kappa)
heavy 1: not shown
heavy 2: not shown
light: B1 light
notes: as for B1
B17: GpH7-A5/GpH7-B3 variant Q295_14T/GpL16-k0 (He Ab) (antibody, human IgG1, kappa)
heavy 1: not shown
heavy 2: not shown
light: B1 light
notes: as for B1
B18: GpH7-B3 variant S298_04F/GpL16-k0 (antibody, human IgG1, kappa)
heavy: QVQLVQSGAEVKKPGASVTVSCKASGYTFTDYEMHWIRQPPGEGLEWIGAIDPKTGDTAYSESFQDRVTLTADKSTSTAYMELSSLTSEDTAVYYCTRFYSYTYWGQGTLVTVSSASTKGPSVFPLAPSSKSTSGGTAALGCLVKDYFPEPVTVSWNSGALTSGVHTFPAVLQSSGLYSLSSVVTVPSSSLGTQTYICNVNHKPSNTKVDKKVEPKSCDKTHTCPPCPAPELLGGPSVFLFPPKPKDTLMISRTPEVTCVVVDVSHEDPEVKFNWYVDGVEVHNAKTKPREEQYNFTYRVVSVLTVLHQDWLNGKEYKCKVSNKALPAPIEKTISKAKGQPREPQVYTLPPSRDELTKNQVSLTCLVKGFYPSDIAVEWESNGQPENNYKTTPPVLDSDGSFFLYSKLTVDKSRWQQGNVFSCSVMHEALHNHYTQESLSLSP
light: B1 light
notes: mutation in both H chains; also called Ho Ab S298_04F; S298F
B19: GpH7-A5/GpH7-B3 variant P271_20W/GpL16-k0 (He Ab) (antibody, human IgG1, kappa)
heavy 1: not shown
heavy 2: not shown
light: B1 light
notes: as for B1
B20: GpH7-A5/GpH7-B3 variant S324_20W/GpL16-k0 (He Ab) (antibody, human IgG1, kappa)
heavy 1: not shown
heavy 2: not shown
light: B1 light
notes: as for B1
B21: GpH7-A5/GpH7-B3 variant P271_03V/GpL16-k0 (He Ab) (antibody, human IgG1, kappa)
heavy 1: not shown
heavy 2: not shown
light: B1 light
notes: as for B1
B22: GpH7-A5/GpH7-B3 variant Q295_13S/GpL16-k0 (He Ab) (antibody, human IgG1, kappa)
heavy 1: not shown
heavy 2: not shown
light: B1 light
notes: as for B1
B23: GpH7-A5/GpH7-B3 variant S324_19Q/GpL16-k0 (He Ab) (antibody, human IgG1, kappa)
heavy 1: not shown
heavy 2: not shown
light: B1 light
notes: as for B1
B24: GpH7-A5/GpH7-B3 variant K326_15Y/GpL16-k0 (He Ab) (antibody, human IgG1, kappa)
heavy 1: not shown
heavy 2: not shown
light: B1 light
notes: as for B1
B25: GpH7-A5/GpH7-B3 variant S324_03V/GpL16-k0 (He Ab) (antibody, human IgG1, kappa)
heavy 1: not shown
heavy 2: not shown
light: B1 light
notes: as for B1
B26: GpH7-A5/GpH7-B3 variant S298_03V/GpL16-k0 (He Ab) (antibody, human IgG1, kappa)
heavy 1: not shown
heavy 2: not shown
light: B1 light
notes: as for B1
B27: GpH7-B3 variant S267_03V/GpL16-k0 (antibody, human IgG1, kappa)
heavy: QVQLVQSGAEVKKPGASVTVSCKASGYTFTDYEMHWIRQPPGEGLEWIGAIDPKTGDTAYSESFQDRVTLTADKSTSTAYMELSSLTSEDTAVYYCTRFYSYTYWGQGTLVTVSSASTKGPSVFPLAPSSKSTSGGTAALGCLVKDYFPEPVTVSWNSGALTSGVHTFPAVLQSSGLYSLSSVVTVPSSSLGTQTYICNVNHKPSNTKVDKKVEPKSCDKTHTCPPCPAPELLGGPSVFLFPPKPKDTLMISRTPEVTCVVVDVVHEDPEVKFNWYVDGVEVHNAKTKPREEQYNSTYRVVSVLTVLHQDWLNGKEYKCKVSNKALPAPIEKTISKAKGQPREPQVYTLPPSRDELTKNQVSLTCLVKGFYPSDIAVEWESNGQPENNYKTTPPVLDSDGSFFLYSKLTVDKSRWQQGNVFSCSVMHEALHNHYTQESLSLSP
light: B1 light
notes: mutation in both H chains; also called Ho Ab S267_03V; S267V
B28: GpH7-A5/GpH7-B3 variant K334_10E/GpL16-k0 (He Ab) (antibody, human IgG1, kappa)
heavy 1: not shown
heavy 2: not shown
light: B1 light
notes: as for B1
B29: GpH7-A5/GpH7-B3 variant S298_10E/GpL16-k0 (He Ab) (antibody, human IgG1, kappa)
heavy 1: not shown
heavy 2: not shown
light: B1 light
notes: as for B1
B30: GpH7-B3 variant S239_09D/GpL16-k0 (antibody, human IgG1, kappa)
heavy: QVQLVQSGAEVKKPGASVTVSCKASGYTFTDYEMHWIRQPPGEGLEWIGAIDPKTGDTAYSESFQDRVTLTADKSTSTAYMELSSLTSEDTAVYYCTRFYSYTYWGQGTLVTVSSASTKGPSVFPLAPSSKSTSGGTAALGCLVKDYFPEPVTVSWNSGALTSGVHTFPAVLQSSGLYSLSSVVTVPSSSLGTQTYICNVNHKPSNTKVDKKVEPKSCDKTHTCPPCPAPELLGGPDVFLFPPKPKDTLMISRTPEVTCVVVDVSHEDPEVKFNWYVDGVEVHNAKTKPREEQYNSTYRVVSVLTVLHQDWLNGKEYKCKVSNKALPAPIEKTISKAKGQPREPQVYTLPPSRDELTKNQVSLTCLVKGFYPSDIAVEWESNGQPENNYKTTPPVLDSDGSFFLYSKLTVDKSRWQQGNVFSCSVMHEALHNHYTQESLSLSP
light: B1 light
notes: mutation in both H chains; also called Ho Ab S239_09D; S239D

Legend:
[1] = molecular target: T1, FcγRIa extracellular domain with C-terminal His tag (human, UniProt P12314 16-292); assay: SPR Biacore, antibody captured, FcγRIa analyte; vs GpH7-A5/GpH7-B3/GpL16-k0 = 100
T1 construct: extracellular domain; Expressed in FreeStyle293 cells; analyte in Biacore; also called FcgRI; FcgRIa
T1 sequence (P12314 16-292): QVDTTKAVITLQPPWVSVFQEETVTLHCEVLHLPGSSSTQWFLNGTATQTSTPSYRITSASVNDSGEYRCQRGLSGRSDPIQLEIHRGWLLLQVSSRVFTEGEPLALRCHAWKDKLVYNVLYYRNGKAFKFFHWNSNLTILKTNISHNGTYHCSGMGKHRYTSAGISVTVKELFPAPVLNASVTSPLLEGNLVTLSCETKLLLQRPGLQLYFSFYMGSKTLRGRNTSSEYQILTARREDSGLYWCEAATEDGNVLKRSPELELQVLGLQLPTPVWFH

[2] = molecular target: T2, FcγRIa extracellular domain with C-terminal His tag (human, UniProt P12314 16-292); assay: SPR Biacore, relative FcγRIa binding vs GpH7-B3/GpL16-k0
T2 construct: extracellular domain; also called FcgRI; CD64; not shown: His tag at the C terminus
T2 sequence (P12314 16-292): as above

Binder | He/Con_1a [1] | Ho/Con_1a [2]
B1 | 103 relative (control = 100) | 
B2 | 106 relative (control = 100) | 
B3 | 109 relative (control = 100) | 
B4 | 103 relative (control = 100) | 
B5 |  | 106 % of HoCon Ab (=100)
B6 |  | 102 % of HoCon Ab (=100)
B7 | 101 relative (control = 100) | 
B8 | 102 relative (control = 100) | 
B9 | 102 relative (control = 100) | 
B10 | 107 relative (control = 100) | 
B11 | 107 relative (control = 100) | 
B12 | 104 relative (control = 100) | 
B13 | 108 relative (control = 100) | 
B14 | 109 relative (control = 100) | 
B15 |  | 106 % of HoCon Ab (=100)
B16 | 107 relative (control = 100) | 
B17 | 103 relative (control = 100) | 
B18 |  | 107 % of HoCon Ab (=100)
B19 | 103 relative (control = 100) | 
B20 | 114 relative (control = 100) | 
B21 | 102 relative (control = 100) | 
B22 | 102 relative (control = 100) | 
B23 | 112 relative (control = 100) | 
B24 | 106 relative (control = 100) | 
B25 | 104 relative (control = 100) | 
B26 | 110 relative (control = 100) | 
B27 |  | 102 % of HoCon Ab (=100)
B28 | 110 relative (control = 100) | 
B29 | 108 relative (control = 100) | 
B30 |  | 101 % of HoCon Ab (=100)
